Reference: patent US20190276561A1 (FUJIFILM WAKO PURE CHEMICAL, published 2019)

Key:
[1] = target: T1, hepatocyte growth factor (HGF) (Homo sapiens (Human), UniProt P14210 388-728); experiment: peak shift in gel filtration chromatography
T1 construct: Antigen of the t8E4 and t1E4 antibodies

[2] = target: T2, Integrin α6β1 (Homo sapiens (Human), UniProt P23229 24-680; P05556 21-465); experiment: peak shift in gel filtration chromatography
T2 construct: Antigen of the TS2/16 and SG/19 antibodies

[3] = target: T3, SORLA (neuroral sorting receptor) Vps10p domain (Homo sapiens (Human), UniProt Q92673 86-753); experiment: peak shift in gel filtration chromatography
T3 construct: also called SORLA Vps10p domain
T3 sequence: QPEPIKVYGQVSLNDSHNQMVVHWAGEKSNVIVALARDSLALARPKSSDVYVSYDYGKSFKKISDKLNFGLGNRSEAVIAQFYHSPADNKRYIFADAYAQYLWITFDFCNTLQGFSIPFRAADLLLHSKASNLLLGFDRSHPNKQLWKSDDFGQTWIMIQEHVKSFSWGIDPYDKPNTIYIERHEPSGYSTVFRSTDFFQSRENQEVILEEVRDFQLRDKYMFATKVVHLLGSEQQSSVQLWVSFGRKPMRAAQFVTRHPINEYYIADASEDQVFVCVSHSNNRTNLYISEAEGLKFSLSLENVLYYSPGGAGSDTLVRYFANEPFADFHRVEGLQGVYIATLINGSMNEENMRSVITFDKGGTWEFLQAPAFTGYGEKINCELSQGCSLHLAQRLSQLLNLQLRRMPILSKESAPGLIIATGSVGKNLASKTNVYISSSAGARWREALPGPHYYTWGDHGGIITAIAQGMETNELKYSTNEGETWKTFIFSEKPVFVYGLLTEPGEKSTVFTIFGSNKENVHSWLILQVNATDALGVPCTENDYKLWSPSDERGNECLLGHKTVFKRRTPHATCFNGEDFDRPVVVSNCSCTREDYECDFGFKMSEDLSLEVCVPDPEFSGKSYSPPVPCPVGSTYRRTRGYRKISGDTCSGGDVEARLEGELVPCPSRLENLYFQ

[4] = target: T1, hepatocyte growth factor (HGF); experiment: X-ray crystal structure of the complex
[5] = target: T4, C8 peptide (PRGYPGQV); experiment: affinity chromatography on immobilised C8 peptide, eluted with free C8
T4 construct: Antigen molecule of the P20.1 antibody
T4 peptide: PRGYPGQV

T1 sequence (P14210 other isoform, or with tags, fused parts or gaps limits assumed): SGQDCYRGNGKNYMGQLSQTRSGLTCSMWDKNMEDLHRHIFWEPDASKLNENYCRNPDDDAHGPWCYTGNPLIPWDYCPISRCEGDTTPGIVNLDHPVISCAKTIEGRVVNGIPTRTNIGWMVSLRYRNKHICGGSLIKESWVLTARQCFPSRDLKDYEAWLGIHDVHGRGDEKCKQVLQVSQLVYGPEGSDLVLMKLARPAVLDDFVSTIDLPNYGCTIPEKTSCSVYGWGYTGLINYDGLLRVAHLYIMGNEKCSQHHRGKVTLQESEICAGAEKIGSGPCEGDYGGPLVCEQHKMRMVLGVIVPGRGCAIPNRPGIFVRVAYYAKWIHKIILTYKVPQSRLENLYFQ
T2 sequence (P23229 other isoform, or with tags, fused parts or gaps limits assumed, chain 1 of 2): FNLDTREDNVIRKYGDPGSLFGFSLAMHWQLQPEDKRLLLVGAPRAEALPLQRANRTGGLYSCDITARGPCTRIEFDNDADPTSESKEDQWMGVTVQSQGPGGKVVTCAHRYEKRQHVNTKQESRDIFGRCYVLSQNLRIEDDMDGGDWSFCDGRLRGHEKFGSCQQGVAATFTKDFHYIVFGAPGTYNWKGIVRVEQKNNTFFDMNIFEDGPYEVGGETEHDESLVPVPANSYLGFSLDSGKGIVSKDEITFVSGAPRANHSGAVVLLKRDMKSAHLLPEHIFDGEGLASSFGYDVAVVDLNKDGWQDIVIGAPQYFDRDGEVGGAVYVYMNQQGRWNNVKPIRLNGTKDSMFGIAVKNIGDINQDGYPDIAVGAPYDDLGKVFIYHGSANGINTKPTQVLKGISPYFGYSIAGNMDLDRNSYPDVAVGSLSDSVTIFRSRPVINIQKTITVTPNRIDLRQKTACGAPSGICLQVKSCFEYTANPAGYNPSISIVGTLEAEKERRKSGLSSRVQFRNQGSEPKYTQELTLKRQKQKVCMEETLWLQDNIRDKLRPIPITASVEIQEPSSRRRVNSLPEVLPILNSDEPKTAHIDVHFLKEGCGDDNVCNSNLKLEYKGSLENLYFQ
T2 sequence (P05556 other isoform, or with tags, fused parts or gaps limits assumed, chain 2 of 2): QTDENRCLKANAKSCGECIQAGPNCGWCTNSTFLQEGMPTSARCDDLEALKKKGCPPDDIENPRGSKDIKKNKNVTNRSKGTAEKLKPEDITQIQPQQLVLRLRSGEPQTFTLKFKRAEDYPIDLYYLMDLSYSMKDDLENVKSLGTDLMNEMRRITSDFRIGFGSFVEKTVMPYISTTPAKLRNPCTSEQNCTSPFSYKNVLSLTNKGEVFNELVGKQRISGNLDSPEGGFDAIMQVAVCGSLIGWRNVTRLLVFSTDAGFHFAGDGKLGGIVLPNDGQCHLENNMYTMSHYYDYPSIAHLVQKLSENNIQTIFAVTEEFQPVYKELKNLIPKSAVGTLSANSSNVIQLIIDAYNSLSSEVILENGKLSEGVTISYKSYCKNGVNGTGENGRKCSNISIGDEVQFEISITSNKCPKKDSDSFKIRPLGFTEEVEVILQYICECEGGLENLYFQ

B1: t8E4 antibody-Fv-clasp (v2) (other)
VH: MKQVQLKESGPDLVQPSQTLSLTCTVSGFSLTGYGVHWVRQPPGKGLEWVGTLGWNDKKYYNSALKSRLSISRDTSKNQVFLKLSSLETEDTAMYYCTRDGGLLFAYYAMDYWGQGTSVTVCSGSDYEFLKSWTVEDLQKRLLALDPMMEQEIEEIRQKYQSKRQPILDAIEAK
VL: MDIQMTQTTSSLSASLGDRVTFSCRASQDISNYLNWYQQKPDGTVKLLIFYTSRLHSGVPSRFSGSGSGTDYSLTIANLEQEDFATYFCQQDSKHPFTFGSGTKLEIKRGSDYEFLKSWTVEDLQKRLLALDPMMEQEIEEIRQKYQCKRQPILDAIEAK
notes: also called Fv-clasp (v2) against t8E4 antibody
[1]
  binding result: binds

B2: SG/19 antibody-Fv-clasp (v2) (other)
VH: MQVHLQQSGAELMKPGASVKISCKATGYTFTSYWIEWVKQRPGHGLEWLGEILPGSGYIHYNEKFKGKATFTTDTSSNTAYMQLSSLTSEDSAVYYCSRALALYAMDYWGQGTSVTVCSGSDYEFLKSWTVEDLQKRLLALDPMMEQEIEEIRQKYQSKRQPILDAIEAK
VL: MDIVMTQATPSIPVTPGESVSISCRSNKSLLHSNGNTYLYWFLQRPGQSPRLLIFRMSNLASGVPDRFSGSGSGTAFTLRISRVEAADVGIYFCLQHLEYPFTFGAGTKLELKRGSDYEFLKSWTVEDLQKRLLALDPMMEQEIEEIRQKYQCKRQPILDAIEAK
notes: also called Fv-clasp (v2) against SG/19 antibody
[2]
  binding result: binds

B3: 93201 antibody-Fv-clasp (v2) (other)
VH: MEVQLQQSGAELVKPGASVKLSCTASGFNIQDTYIHWVKQRPEQGLDWIGRIDPANGNTKYDPNFQGKATITADTSSNTAYLQLSSLASEDTAVYYCATSNYYSRGAMDYWGQGTSVTVCSGSDYEFLKSWTVEDLQKRLLALDPMMEQEIEEIRQKYQSKRQPILDAIEAK
VL: MDIVLTQSPASLAVSLGQRATISCRASESVEYYGTNLMHWYQQKPGQPPKLLIYVASTVKSGVPARFSGSGSGTDFSLNIHPVEEDDIAMYFCQQSRKVPWTFGGGTRLEIKRGSDYEFLKSWTVEDLQKRLLALDPMMEQEIEEIRQKYQCKRQPILDAIEAK
[3]
  binding result: binds

B4: TS2/16 antibody-Fv-clasp (v2) (other)
VH: MDVKLVESGGGLVKPGGSLKLSCAASGFTFSSYTMSWVRQTPEKRLEWVATISSGGSYTYYPDSVKGRFTISRDKAKNTLYLQMGSLKSEDTAMYYCTRIGYDEDYAMDHWGQGTSVTVCSGSDYEFLKSWTVEDLQKRLLALDPMMEQEIEEIRQKYQSKRQPILDAIEAK
VL: MQIVVTQRPTTMAASPGDKIIITCSVSSIISSNYLHWYSQKPGFSPKLLIYRTSNLASGVPPRFSGSGSGTSYSLTIGTMEAEDVATYYCQQGSDIPLTFGDGTKLDLKRGSDYEFLKSWTVEDLQKRLLALDPMMEQEIEEIRQKYQCKRQPILDAIEAK
notes: also called Fv-clasp (v2) against TS2/16 antibody
[2]
  binding result: binds

B5: t1E4 antibody-Fv-clasp (v2) (other)
VH: MKQGQLQQSGPELVKPGASVKISCKASGYVFSSSWMNWVKQRPGKGLEWIGRIYPGYGDTNYNGKFKGKATLTADKSSSTAYMQLSSLTSEDSAVYFCVREELGPYWYFDVWGAGTTVTVCSGSDYEFLKSWTVEDLQKRLLALDPMMEQEIEEIRQKYQSKRQPILDAIEAK
VL: MDVVMTQTPLSLPVSLGDQASISCRSSQSLVHSNGNTYLHWYLQKPGQSPKLLIYKVSNRFSGVPDRFSGSGSGTDFTLKISRVEAEDLGVYFCSQSTHVPYTFGSGTKLEIKRGSDYEFLKSWTVEDLQKRLLALDPMMEQEIEEIRQKYQCKRQPILDAIEAK
notes: also called Fv-clasp (v2) against t1E4 antibody
[4]
  binding result: binds

B6: P20.1 antibody-Fv-clasp (v1) obtained in the E. coli expression system (Comparative Example 1) (other)
VH: MQIQLVQSGPEVQKPGETVRISCKASGYTFTTAGMQWVQKMPGKSLKWIGWINTRSGVPKYAEDFKGRFAFSLETSASIAYLHINNLKNEDTATYFCAREGPGFVYWGQGTLVTVSSGSDYEFLKSWTVEDLQKRLLALDPMMEQEIEEIRQKCQSKRQPILDAIEAK
VL: MGQTVVTQESALTTSPGETVTLTCRSSTGAVTTSNYANWVQEKPDHLFTGLIVGTNNRVPGVPPRFSGSLIEDKAALTITGAQTEDEAIYFCALWYSNHWVFGGGTKLTVLGGSDYEFLKSWTVEDLQKRLLALDPMCEQEIEEIRQKYQSKRQPILDAIEAK
notes: Fv-clasp fragment antibody: heterodimer of VH-SARAH and VL-SARAH linked by a disulfide between Cys35 and Cys24 of the two SARAH domains; also called Fv-clasp (v1) against P20.1 antibody; Fv-clasp (v1) of P20.1 antibody
[5]
  binding result: binds
